Assay results reported in patent publication US20150291692A1.

How the values were obtained:
[1] = biological target: KIR3DL2 on fresh Sezary Syndrome cells of patients (human) (UniProt P43630); test: flow cytometry of whole blood of a Sezary Syndrome patient, antibody + GaM-PE against CD4; upper gate (CD4+ cells)
[2] = biological target: NK cells, including normal KIR3DL2+ NK cells (Homo sapiens) (UniProt P43630); test: flow cytometry of whole blood of a Sezary Syndrome patient, antibody + GaM-PE against CD4; lower gate (CD4-negative NK cells)
NK cells, including normal KIR3DL2+ NK cells (Homo sapiens), sequence (P43630 22-455 limits assumed): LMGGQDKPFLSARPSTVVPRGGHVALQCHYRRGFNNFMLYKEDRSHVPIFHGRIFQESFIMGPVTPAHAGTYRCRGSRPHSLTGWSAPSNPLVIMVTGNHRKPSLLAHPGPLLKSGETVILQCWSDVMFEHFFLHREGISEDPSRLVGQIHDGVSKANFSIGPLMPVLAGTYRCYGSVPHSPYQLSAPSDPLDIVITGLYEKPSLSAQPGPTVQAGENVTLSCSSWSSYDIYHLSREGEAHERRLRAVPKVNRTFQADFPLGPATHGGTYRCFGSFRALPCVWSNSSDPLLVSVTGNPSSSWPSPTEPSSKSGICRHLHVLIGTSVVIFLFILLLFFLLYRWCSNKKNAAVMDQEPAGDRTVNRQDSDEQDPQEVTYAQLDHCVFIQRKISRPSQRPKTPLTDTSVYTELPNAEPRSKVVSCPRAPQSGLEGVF

KIR3DL2 on fresh Sezary Syndrome cells of patients (human), sequence (P43630 22-455): as the sequence (P43630 22-455 limits assumed) above

% of cells in gate CD4 GaM PE+ [1]: 0.1%
% of cells in gate NK GaM PE+ [2]: 0.9%
Substance: Isotype Control (antibody)
